Tests used:
[1] = biological target: human PD-L1 on GS-C2 cells (cells overexpressing human PD-L1, GenScript, M00613) (human) (UniProt Q9NZQ7); test: cell-based or functional assay
[2] = biological target: human PD-L1 on GS-C2 cells (cells overexpressing human PD-L1, GenScript, M00613) (human) (UniProt Q9NZQ7); test: flow cytometry on GS-C2 cells
[3] = biological target: monkey PD-L1 (Cyno-PD-L1) on cells (monkey (cyno)); test: flow cytometry on 293F-cyno PD-L1 cells

human PD-L1 on GS-C2 cells (cells overexpressing human PD-L1, GenScript, M00613) (human), sequence (Q9NZQ7 19-290): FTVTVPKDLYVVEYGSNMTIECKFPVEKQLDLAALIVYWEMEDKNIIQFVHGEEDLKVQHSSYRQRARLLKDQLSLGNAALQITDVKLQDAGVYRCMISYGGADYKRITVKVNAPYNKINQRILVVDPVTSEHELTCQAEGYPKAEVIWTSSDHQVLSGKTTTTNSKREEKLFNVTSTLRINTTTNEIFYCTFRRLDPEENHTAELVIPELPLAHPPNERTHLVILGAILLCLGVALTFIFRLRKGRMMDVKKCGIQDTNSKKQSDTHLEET

EC50 (nM), blocking of T cell PD-1/PD-L1 signaling pathway (GS-C2 cells with Jurket-NFAT-PD1 cells, luciferase) [1]: 2.38 nM
EC50 [2]: 0.694 nM
EC50 [3]: 1.34 nM
Substance: control antibody Benchmark-ATE (monoclonal antibody, Atezolizumab)

— US20260201058A1
